Laboratory results published in article PMC9352680, “A comprehensive thermodynamic model for RNA binding by the Saccharomyces cerevisiae Pumilio protein PUF4”.

Biological target: T1, PUF4 RNA-binding domain (Saccharomyces cerevisiae, UniProt P25339 537-888)
T1 sequence: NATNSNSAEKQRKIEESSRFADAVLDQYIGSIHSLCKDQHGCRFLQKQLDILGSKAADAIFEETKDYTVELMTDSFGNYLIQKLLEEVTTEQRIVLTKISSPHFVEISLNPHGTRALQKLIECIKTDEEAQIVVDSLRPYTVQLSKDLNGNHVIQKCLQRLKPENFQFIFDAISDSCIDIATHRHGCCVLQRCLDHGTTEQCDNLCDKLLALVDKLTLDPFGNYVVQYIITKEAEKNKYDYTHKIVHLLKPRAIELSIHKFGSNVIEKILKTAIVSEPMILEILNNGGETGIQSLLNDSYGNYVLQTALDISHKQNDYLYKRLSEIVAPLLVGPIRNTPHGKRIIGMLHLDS
Test: Mg; RNA-MaP; 20 mM Na-HEPES pH 7.4, 30 mM KOAc, 0.75 mM MgCl2, 0.1% Tween-20, 5% glycerol, 0.1 mg/mL BSA, 2 mM DTT; 25 C; 0.0125-409.6 nM protein
Conditions: tags: N-His6-TEV cleaved; C-SNAP kept, Cy3B-labelled; label: tethered on chip by stalled RNA polymerase

Binder	Kd
UCUCUUUGUAAAACCUCUCUU (ssRNA) [Ic_S1_P4E.1_K4.1_C4.1_H4.1_A4.1_[T5A]_[T7A]_F4.1_[T8C]_[A9C]_T4.1]	523 nM
UCUCUUUGUAAUUCUUCUCUU (ssRNA) [Ic_S1_P4E.1_K4.1_C4.1_H4.1_A4.1_[T5A]_[A6T]_F4.1_[T8C]_[A9T]_T4.1]	123 nM
UCUCUUUGUAAUGGCUCUCUU (ssRNA) [Ic_S1_P4E.1_K4.1_C4.1_H4.1_A4.1_[T5A]_[A6T]_[T7G]_F4.1_[T8G]_[A9C]_T4.1]	2140 nM
UCUCUUUGUAAUGUGUCUCUU (ssRNA) [Ic_S1_P4E.1_K4.1_C4.1_H4.1_A4.1_[T5A]_[A6T]_[T7G]_F4.1_[A9G]_T4.1]	105 nM
UCUCUUUGUAAACUCUCUCUU (ssRNA) [Ic_S1_P4E.1_K4.1_C4.1_H4.1_A4.1_[T5A]_[T7C]_F4.1_[A9C]_T4.1]	33.8 nM
UCUCUUUGUAAUCAUUCUCUU (ssRNA) [Ic_S1_P4E.1_K4.1_C4.1_H4.1_A4.1_[T5A]_[A6T]_[T7C]_F4.1_[T8A]_[A9T]_T4.1]	413 nM
UCUCUUUGUAAUUAGUCUCUU (ssRNA) [Ic_S1_P4E.1_K4.1_C4.1_H4.1_A4.1_[T5A]_[A6T]_F4.1_[T8A]_[A9G]_T4.1]	126 nM
UCUCUUUGUAAUAUAUCUCUU (ssRNA) [Ic_S1_P4E.1_K4.1_C4.1_H4.1_A4.1_[T5A]_[A6T]_[T7A]_F4.1_T4.1]	2.68 nM
UCUCUUUGUAAACGCUCUCUU (ssRNA) [Ic_S1_P4E.1_K4.1_C4.1_H4.1_A4.1_[T5A]_[T7C]_F4.1_[T8G]_[A9C]_T4.1]	833 nM
UCUCUUUGUAAAACUUCUCUU (ssRNA) [Ic_S1_P4E.1_K4.1_C4.1_H4.1_A4.1_[T5A]_[T7A]_F4.1_[T8C]_[A9T]_T4.1]	106 nM
UCUCUUUGUAUCUAUCUCUU (ssRNA) [Ic_S1_P3E.1_K3.1_C3.1_H3.1_A3.1_[A6C]_F3.1_T3.1]	48.6 nM
UCUCUUUGUAAUAACUCUCUU (ssRNA) [Ic_S1_P4E.1_K4.1_C4.1_H4.1_A4.1_[T5A]_[A6T]_[T7A]_F4.1_[T8A]_[A9C]_T4.1]	642 nM
UCUCUUUGUAAUCUAUCUCUU (ssRNA) [Ic_S1_P4E.1_K4.1_C4.1_H4.1_A4.1_[T5A]_[A6T]_[T7C]_F4.1_T4.1]	8.88 nM
UCUCUUUGUAAUAGCUCUCUU (ssRNA) [Ic_S1_P4E.1_K4.1_C4.1_H4.1_A4.1_[T5A]_[A6T]_[T7A]_F4.1_[T8G]_[A9C]_T4.1]	941 nM
UCUCUUUGUAAAGCGUCUCUU (ssRNA) [Ic_S1_P4E.1_K4.1_C4.1_H4.1_A4.1_[T5A]_[T7G]_F4.1_[T8C]_[A9G]_T4.1]	2010 nM
UCUCUUUGUAACUUUUCUCUU (ssRNA) [Ic_S1_P4E.1_K4.1_C4.1_H4.1_A4.1_[T5A]_[A6C]_F4.1_[A9T]_T4.1]	58.3 nM
UCUCUUUGUAAAGCUUCUCUU (ssRNA) [Ic_S1_P4E.1_K4.1_C4.1_H4.1_A4.1_[T5A]_[T7G]_F4.1_[T8C]_[A9T]_T4.1]	658 nM
UCUCUUUGUCUAUUUCUCUU (ssRNA) [Ib_S1_P3E.1_K3.1_C3.1_H3.1_[A4C]_A3.1_F3.1_[A8T]_T3.1]	823 nM
UCUCUUUGUAAUUUUUCUCUU (ssRNA) [Ic_S1_P4E.1_K4.1_C4.1_H4.1_A4.1_[T5A]_[A6T]_F4.1_[A9T]_T4.1]	34.7 nM
UCUCUUUGUAAACAAUCUCUU (ssRNA) [Ic_S1_P4E.1_K4.1_C4.1_H4.1_A4.1_[T5A]_[T7C]_F4.1_[T8A]_T4.1]	57.4 nM
UCUCUUUGUAAAGCCUCUCUU (ssRNA) [Ic_S1_P4E.1_K4.1_C4.1_H4.1_A4.1_[T5A]_[T7G]_F4.1_[T8C]_[A9C]_T4.1]	1020 nM
UCUCUUUGUAAUUUCUCUCUU (ssRNA) [Ic_S1_P4E.1_K4.1_C4.1_H4.1_A4.1_[T5A]_[A6T]_F4.1_[A9C]_T4.1]	83.9 nM

Binder	Kd
UCUCUUUGUAAUUGAUCUCUU (ssRNA) [Ic_S1_P4E.1_K4.1_C4.1_H4.1_A4.1_[T5A]_[A6T]_F4.1_[T8G]_T4.1]	712 nM
UCUCUUUGUAAACCGUCUCUU (ssRNA) [Ic_S1_P4E.1_K4.1_C4.1_H4.1_A4.1_[T5A]_[T7C]_F4.1_[T8C]_[A9G]_T4.1]	951 nM
UCUCUUUGUAAUCGCUCUCUU (ssRNA) [Ic_S1_P4E.1_K4.1_C4.1_H4.1_A4.1_[T5A]_[A6T]_[T7C]_F4.1_[T8G]_[A9C]_T4.1]	1820 nM
UCUCUUUGUAAUCCCUCUCUU (ssRNA) [Ic_S1_P4E.1_K4.1_C4.1_H4.1_A4.1_[T5A]_[A6T]_[T7C]_F4.1_[T8C]_[A9C]_T4.1]	1070 nM
UCUCUUUGUAAAAACUCUCUU (ssRNA) [Ic_S1_P4E.1_K4.1_C4.1_H4.1_A4.1_[T5A]_[T7A]_F4.1_[T8A]_[A9C]_T4.1]	526 nM
UCUCUUUGUAAUUACUCUCUU (ssRNA) [Ic_S1_P4E.1_K4.1_C4.1_H4.1_A4.1_[T5A]_[A6T]_F4.1_[T8A]_[A9C]_T4.1]	670 nM
UCUCUUUGUAAUUGUUCUCUU (ssRNA) [Ic_S1_P4E.1_K4.1_C4.1_H4.1_A4.1_[T5A]_[A6T]_F4.1_[T8G]_[A9T]_T4.1]	98.4 nM
UCUCUUUGUAAACUGUCUCUU (ssRNA) [Ic_S1_P4E.1_K4.1_C4.1_H4.1_A4.1_[T5A]_[T7C]_F4.1_[A9G]_T4.1]	17.2 nM
UCUCUUUGUAAUACCUCUCUU (ssRNA) [Ic_S1_P4E.1_K4.1_C4.1_H4.1_A4.1_[T5A]_[A6T]_[T7A]_F4.1_[T8C]_[A9C]_T4.1]	713 nM
UCUCUUUGUUUAUUUCUCUU (ssRNA) [Ib_S1_P3E.1_K3.1_C3.1_H3.1_[A4T]_A3.1_F3.1_[A8T]_T3.1]	426 nM
UCUCUUUGUGUAUCUCUCUU (ssRNA) [Ib_S1_P3E.1_K3.1_C3.1_H3.1_[A4G]_A3.1_F3.1_[A8C]_T3.1]	63.7 nM
UCUCUUUGUAAUCUUUCUCUU (ssRNA) [Ic_S1_P4E.1_K4.1_C4.1_H4.1_A4.1_[T5A]_[A6T]_[T7C]_F4.1_[A9T]_T4.1]	56.3 nM
UCUCUUUGUACACAUCUCUU (ssRNA) [Ic_S1_P3E.1_K3.1_C3.1_H3.1_A3.1_[T5C]_F3.1_[T7C]_T3.1]	46.1 nM
UCUCUUUGUAAUGUCUCUCUU (ssRNA) [Ic_S1_P4E.1_K4.1_C4.1_H4.1_A4.1_[T5A]_[A6T]_[T7G]_F4.1_[A9C]_T4.1]	476 nM
UCUCUUUGUAAUAAUUCUCUU (ssRNA) [Ic_S1_P4E.1_K4.1_C4.1_H4.1_A4.1_[T5A]_[A6T]_[T7A]_F4.1_[T8A]_[A9T]_T4.1]	172 nM
UCUCUUUGUAAUCGAUCUCUU (ssRNA) [Ic_S1_P4E.1_K4.1_C4.1_H4.1_A4.1_[T5A]_[A6T]_[T7C]_F4.1_[T8G]_T4.1]	1160 nM
UCUCUUUGUAAUUCGUCUCUU (ssRNA) [Ic_S1_P4E.1_K4.1_C4.1_H4.1_A4.1_[T5A]_[A6T]_F4.1_[T8C]_[A9G]_T4.1]	517 nM
UCUCUUUGUAAUGUAUCUCUU (ssRNA) [Ic_S1_P4E.1_K4.1_C4.1_H4.1_A4.1_[T5A]_[A6T]_[T7G]_F4.1_T4.1]	11.2 nM
UCUCUUUGUAAUUAAUCUCUU (ssRNA) [Ic_S1_P4E.1_K4.1_C4.1_H4.1_A4.1_[T5A]_[A6T]_F4.1_[T8A]_T4.1]	216 nM
UCUCUUUGUAAUCCUUCUCUU (ssRNA) [Ic_S1_P4E.1_K4.1_C4.1_H4.1_A4.1_[T5A]_[A6T]_[T7C]_F4.1_[T8C]_[A9T]_T4.1]	484 nM
UCUCUUUGUAAACUUUCUCUU (ssRNA) [Ic_S1_P4E.1_K4.1_C4.1_H4.1_A4.1_[T5A]_[T7C]_F4.1_[A9T]_T4.1]	24.7 nM
UCUCUUUGUAAUUUGUCUCUU (ssRNA) [Ic_S1_P4E.1_K4.1_C4.1_H4.1_A4.1_[T5A]_[A6T]_F4.1_[A9G]_T4.1]	28.5 nM

Binder	Kd
UCUCUUUGUAAAACAUCUCUU (ssRNA) [Ic_S1_P4E.1_K4.1_C4.1_H4.1_A4.1_[T5A]_[T7A]_F4.1_[T8C]_T4.1]	41.1 nM
UCUCUUUGUAAAAGCUCUCUU (ssRNA) [Ic_S1_P4E.1_K4.1_C4.1_H4.1_A4.1_[T5A]_[T7A]_F4.1_[T8G]_[A9C]_T4.1]	2280 nM
UCUCUUUGUAAUAUCUCUCUU (ssRNA) [Ic_S1_P4E.1_K4.1_C4.1_H4.1_A4.1_[T5A]_[A6T]_[T7A]_F4.1_[A9C]_T4.1]	36 nM
UCUCUUUGUAAACAGUCUCUU (ssRNA) [Ic_S1_P4E.1_K4.1_C4.1_H4.1_A4.1_[T5A]_[T7C]_F4.1_[T8A]_[A9G]_T4.1]	508 nM
UCUCUUUGUAAUUGGUCUCUU (ssRNA) [Ic_S1_P4E.1_K4.1_C4.1_H4.1_A4.1_[T5A]_[A6T]_F4.1_[T8G]_[A9G]_T4.1]	1880 nM
UCUCUUUGUAAUGCAUCUCUU (ssRNA) [Ic_S1_P4E.1_K4.1_C4.1_H4.1_A4.1_[T5A]_[A6T]_[T7G]_F4.1_[T8C]_T4.1]	642 nM
UCUCUUUGUAAUAUGUCUCUU (ssRNA) [Ic_S1_P4E.1_K4.1_C4.1_H4.1_A4.1_[T5A]_[A6T]_[T7A]_F4.1_[A9G]_T4.1]	12.5 nM
UCUCUUUGUAAUGUUUCUCUU (ssRNA) [Ic_S1_P4E.1_K4.1_C4.1_H4.1_A4.1_[T5A]_[A6T]_[T7G]_F4.1_[A9T]_T4.1]	95.2 nM
UCUCUUUGUAAUUGCUCUCUU (ssRNA) [Ic_S1_P4E.1_K4.1_C4.1_H4.1_A4.1_[T5A]_[A6T]_F4.1_[T8G]_[A9C]_T4.1]	682 nM
UCUCUUUGUUUAUCUCUCUU (ssRNA) [Ib_S1_P3E.1_K3.1_C3.1_H3.1_[A4T]_A3.1_F3.1_[A8C]_T3.1]	1280 nM
UCUCUUUGUAAUCUCUCUCUU (ssRNA) [Ic_S1_P4E.1_K4.1_C4.1_H4.1_A4.1_[T5A]_[A6T]_[T7C]_F4.1_[A9C]_T4.1]	74.6 nM
UCUCUUUGUAAAGUCUCUCUU (ssRNA) [Ic_S1_P4E.1_K4.1_C4.1_H4.1_A4.1_[T5A]_[T7G]_F4.1_[A9C]_T4.1]	406 nM
UCUCUUUGUUUAUGUCUCUU (ssRNA) [Ib_S1_P3E.1_K3.1_C3.1_H3.1_[A4T]_A3.1_F3.1_[A8G]_T3.1]	1460 nM
UCUCUUUGUAAUACUUCUCUU (ssRNA) [Ic_S1_P4E.1_K4.1_C4.1_H4.1_A4.1_[T5A]_[A6T]_[T7A]_F4.1_[T8C]_[A9T]_T4.1]	603 nM
UCUCUUUGUAAACACUCUCUU (ssRNA) [Ic_S1_P4E.1_K4.1_C4.1_H4.1_A4.1_[T5A]_[T7C]_F4.1_[T8A]_[A9C]_T4.1]	565 nM
UCUCUUUGUAAACAUUCUCUU (ssRNA) [Ic_S1_P4E.1_K4.1_C4.1_H4.1_A4.1_[T5A]_[T7C]_F4.1_[T8A]_[A9T]_T4.1]	165 nM
UCUCUUUGUAAUUAUUCUCUU (ssRNA) [Ic_S1_P4E.1_K4.1_C4.1_H4.1_A4.1_[T5A]_[A6T]_F4.1_[T8A]_[A9T]_T4.1]	92.4 nM
UCUCUUUGUAAAGCAUCUCUU (ssRNA) [Ic_S1_P4E.1_K4.1_C4.1_H4.1_A4.1_[T5A]_[T7G]_F4.1_[T8C]_T4.1]	387 nM
UCUCUUUGUAAACCCUCUCUU (ssRNA) [Ic_S1_P4E.1_K4.1_C4.1_H4.1_A4.1_[T5A]_[T7C]_F4.1_[T8C]_[A9C]_T4.1]	1020 nM
UCUCUUUGUAAUGGUUCUCUU (ssRNA) [Ic_S1_P4E.1_K4.1_C4.1_H4.1_A4.1_[T5A]_[A6T]_[T7G]_F4.1_[T8G]_[A9T]_T4.1]	764 nM
UCUCUUUGUAAUCUGUCUCUU (ssRNA) [Ic_S1_P4E.1_K4.1_C4.1_H4.1_A4.1_[T5A]_[A6T]_[T7C]_F4.1_[A9G]_T4.1]	76.5 nM
